Measured values from patent CN117866904A (BEILAI PHARMACEUTICAL CO LTD, dated 2024).

T1: Biotin-IL-17A-His (UniProt Q16552 24-155, limits assumed, biotinylated (Biotin-IL-17A-His); site not stated)
T1 construct: not shown: His tag
T1 sequence (looked up): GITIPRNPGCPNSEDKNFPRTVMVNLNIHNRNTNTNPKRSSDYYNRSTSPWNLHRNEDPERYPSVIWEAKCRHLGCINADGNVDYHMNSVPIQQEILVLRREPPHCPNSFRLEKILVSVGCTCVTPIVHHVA

T2: IL-17A重组蛋白(抗原), IL-17 antigen with a C-terminal 6×His tag, expressed in E. coli BL21 (human, UniProt Q16552 24-155, limits assumed)
T2 sequence: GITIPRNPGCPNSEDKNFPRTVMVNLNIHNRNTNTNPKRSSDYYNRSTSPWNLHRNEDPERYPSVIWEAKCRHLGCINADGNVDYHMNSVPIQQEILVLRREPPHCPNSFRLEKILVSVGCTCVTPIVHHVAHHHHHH


What was measured:
Biotin-IL-17A-His = molecular target: T1, Biotin-IL-17A-His; test: ELISA: antibody coated at 2 ug/mL; Biotin-IL-17A-His titrated from 10 ug/mL, 5-fold, 7 points; HRP-streptavidin; OD450
[1] = molecular target: T2, IL-17A重组蛋白(抗原), IL-17 antigen with a …; test: cell-based or functional assay
[2] = molecular target: 生物素化的IL-17A of the ACRO Biosystems IL-17A[Biotinylated]:IL-17RA Inhibitor Screening ELISA Kit (EP-139) (UniProt Q16552); test: blocking ELISA kit: IL-17RA coated, biotinylated IL-17A; G4-H10-MSC supernatant diluted 5-fold; inhibition = [OD450 positive well - OD450 sample well]/OD450 positive well

| EC50 (Biotin-IL-17A-His) [µg/mL] | IC50, 阻断Human IL-17A蛋白激活293F-IL-17RA-IL-17Rc-ACT1-NFκB-Luc报告基因细胞株 [1] [nM] | 结合抑制率 (IL-17A/IL17RA) [2] [%] | Binder |
| --- | --- | --- | --- |
| 10.1 | 2.23 | – | 阳性对照抗体Ixekizumab (antibody, human IgG4 S228P, kappa, V domains shown, also called 阳性抗体) VH: QVQLVQSGAEVKKPGSSVKVSCKASGYSFTDYHIHWVRQAPGQGLEWMGVINPMYGTTDYNQRFKGRVTITADESTSTAYMELSSLRSEDTAVYYCARYDYFTGTGVYWGQGTLVTVSS VL: DIVMTQTPLSLSVTPGQPASISCRSSRSLVHSRGNTYLHWYLQKPGQSPQLLIYKVSNRFIGVPDRFSGSGSGTDFTLKISRVEAEDVGVYYCSQSTHLPFTFGQGTKLEIKR |
| – | – | 60 | IL-17Nb secreted by G4-H10-MSC (G4-H10:Fc融合蛋白, VHH-(GGGGS)3-VHH-IgG4 Fc) (Fc fusion) QVQLVESGGGLVQPGGSLRLSCAASGEKLDYFAIGWFRQAPGKEREVVSCVTSSGSSTNYLSSVKDRFTISIDNAKNTVYLQMNSLKPEDTAIYYCASTILLCSDYISAFGTWGQGTQVTVASGGGGSGGGGSGGGGSEVQLVESGGGLVQPGGSLRLSCAASGFSIHIYAMGWYRQAPGKQRELVATITRGGVTNNADSVKGRFTISRDNAKNTAYLQMNSLKPEDTAVYYCNAGGTNGGYWGQGTQVTVSSAPEFLGGPSVFLFPPKPKDTLMISRTPEVTCVVVDVSQEDPEVQFNWYVDGVEVHNAKTKPREEQFNSTYRVVSVLTVLHQDWLNGKEYKCKVSNKGLPSSIEKTISKAKGQPREPQVYTLPPSQEEMTKNQVSLTCLVKGFYPSDIAVEWESNGQPENNYKTTPPVLDSDGSFFLYSRLTVDKSRWQEGNVFSCSVMHEALHNHYTQKSLSLSLGK |
